Article PMC9482650, “Quantitative fragmentomics allow affinity mapping of interactomes” (Nature Communications, 2022)

Assays:
Experiment in all cases: holdup assay
Design in all cases: key: below the threshold = too weak to quantify, mostly under pKd 3.1 to 4
PTPN3, P26045 = molecular target: PTPN3, P26045
PDZRN4_1, Q6ZMN7 = molecular target: PDZRN4_1, Q6ZMN7
LNX2_2, Q8N448 = molecular target: T1, LNX2_2, Q8N448
T1 sequence (Q8N448 334-432, limits assumed, looked up): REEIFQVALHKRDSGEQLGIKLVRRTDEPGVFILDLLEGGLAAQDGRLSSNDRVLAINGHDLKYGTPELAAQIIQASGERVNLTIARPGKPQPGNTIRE

DLG4_2, P78352 = molecular target: DLG4_2, P78352
Inadl_8, Q8NI35 = molecular target: Inadl_8, Q8NI35
SNTG1, Q9NSN8 = molecular target: T2, SNTG1, Q9NSN8
T2 sequence (Q9NSN8 52-150, limits assumed, looked up): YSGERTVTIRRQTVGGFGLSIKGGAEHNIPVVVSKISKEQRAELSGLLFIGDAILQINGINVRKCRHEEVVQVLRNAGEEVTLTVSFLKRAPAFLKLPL

GORASP1, Q9BQQ3 = molecular target: GORASP1, Q9BQQ3
FRMPD3, Q5JV73 = molecular target: FRMPD3, Q5JV73
NHERF3_4, Q5T2W1 = molecular target: T3, NHERF3_4, Q5T2W1
T3 sequence (Q5T2W1 373-468, limits assumed, looked up): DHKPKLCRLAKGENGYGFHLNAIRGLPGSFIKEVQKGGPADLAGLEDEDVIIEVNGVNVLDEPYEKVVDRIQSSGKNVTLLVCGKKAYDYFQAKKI

MPP2, Q14168 = molecular target: T4, MPP2, Q14168
T4 sequence (Q14168 180-250, limits assumed, looked up): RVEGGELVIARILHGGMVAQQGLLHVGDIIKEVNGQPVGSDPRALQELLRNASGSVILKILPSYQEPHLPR

GORASP2, Q9H8Y8 = molecular target: GORASP2, Q9H8Y8
RHPN1, Q8TCX5 = molecular target: T5, RHPN1, Q8TCX5
T5 sequence (Q8TCX5 508-602, limits assumed, looked up): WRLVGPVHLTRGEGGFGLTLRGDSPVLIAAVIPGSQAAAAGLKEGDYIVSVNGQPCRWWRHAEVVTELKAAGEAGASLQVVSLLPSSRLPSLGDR

MAST1, Q9Y2H9 = molecular target: MAST1, Q9Y2H9
DFNB31_3, Q9P202 = molecular target: T6, DFNB31_3, Q9P202
T6 sequence (Q9P202 811-907, limits assumed, looked up): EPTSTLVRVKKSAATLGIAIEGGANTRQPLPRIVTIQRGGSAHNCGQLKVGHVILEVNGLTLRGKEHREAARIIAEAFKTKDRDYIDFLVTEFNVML

MAGI2_3, Q86UL8 = molecular target: MAGI2_3, Q86UL8
DLG3_2, Q92796 = molecular target: T7, DLG3_2, Q92796
T7 sequence (Q92796 221-321, limits assumed, looked up): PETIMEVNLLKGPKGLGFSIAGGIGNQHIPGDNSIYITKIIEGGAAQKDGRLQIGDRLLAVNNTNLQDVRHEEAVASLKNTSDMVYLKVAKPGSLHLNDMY

TJP1_2, Q07157 = molecular target: TJP1_2, Q07157
SHANK1, Q9Y566 = molecular target: T8, SHANK1, Q9Y566
T8 sequence (Q9Y566 658-767, limits assumed, looked up): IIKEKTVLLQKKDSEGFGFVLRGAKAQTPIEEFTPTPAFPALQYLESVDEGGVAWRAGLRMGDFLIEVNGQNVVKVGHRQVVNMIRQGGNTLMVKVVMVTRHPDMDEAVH

LNX1_1, Q8TBB1 = molecular target: LNX1_1, Q8TBB1
DLG4_1, P78352 = molecular target: DLG4_1, P78352
LIN7C, Q9NUP9 = molecular target: T9, LIN7C, Q9NUP9
T9 sequence (Q9NUP9 88-185, limits assumed, looked up): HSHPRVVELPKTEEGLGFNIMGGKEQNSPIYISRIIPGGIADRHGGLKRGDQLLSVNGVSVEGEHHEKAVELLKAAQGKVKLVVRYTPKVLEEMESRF

NHERF4_2, Q86UT5 = molecular target: NHERF4_2, Q86UT5
SYNJ2BP, P57105 = molecular target: T10, SYNJ2BP, P57105
T10 sequence (P57105 8-110, limits assumed, looked up): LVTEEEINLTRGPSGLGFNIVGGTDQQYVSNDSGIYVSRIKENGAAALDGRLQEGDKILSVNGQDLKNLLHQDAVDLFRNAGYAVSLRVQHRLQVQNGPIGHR

SCRIB_1, Q14160 = molecular target: SCRIB_1, Q14160
NHERF3_1, Q5T2W1 = molecular target: T11, NHERF3_1, Q5T2W1
T11 sequence (Q5T2W1 4-100, limits assumed, looked up): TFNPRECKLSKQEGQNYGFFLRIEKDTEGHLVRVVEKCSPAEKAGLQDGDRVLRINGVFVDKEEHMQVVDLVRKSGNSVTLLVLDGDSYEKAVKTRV

MAGI1_2, Q96QZ7 = molecular target: MAGI1_2, Q96QZ7
NHERF2_2, Q15599 = molecular target: NHERF2_2, Q15599
[1] = plain residues with an end cap or a label only (N-terminal biotin on a linker: ahx)
[2] = plain residues with an end cap or a label only (N-terminal biotin on a linker: ado-ado)
[3] = plain residues with an end cap or a label only (N-terminal biotin on a linker: ttds)

Sequence of DLG4_1, P78352 (P78352 62-152): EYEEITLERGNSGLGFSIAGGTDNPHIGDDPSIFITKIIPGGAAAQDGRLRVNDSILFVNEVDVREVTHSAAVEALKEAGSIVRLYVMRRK
Sequence of NHERF2_2, Q15599 (Q15599 142-238): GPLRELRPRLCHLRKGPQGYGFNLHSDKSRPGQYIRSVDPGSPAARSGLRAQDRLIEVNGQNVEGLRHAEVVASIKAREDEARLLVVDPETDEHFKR
Sequence of PTPN3, P26045 (P26045 505-587): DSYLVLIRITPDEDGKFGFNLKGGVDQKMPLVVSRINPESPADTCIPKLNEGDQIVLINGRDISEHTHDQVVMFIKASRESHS
Sequence of Inadl_8, Q8NI35 (Q8NI35 1425-1530): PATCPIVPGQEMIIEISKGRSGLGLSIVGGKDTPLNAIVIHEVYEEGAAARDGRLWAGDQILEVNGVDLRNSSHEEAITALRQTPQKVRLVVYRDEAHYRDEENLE
Sequence of SCRIB_1, Q14160 (Q14160 718-814): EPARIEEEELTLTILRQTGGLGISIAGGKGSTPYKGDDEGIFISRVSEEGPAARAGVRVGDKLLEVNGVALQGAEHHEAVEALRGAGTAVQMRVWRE
Sequence of TJP1_2, Q07157 (Q07157 181-274): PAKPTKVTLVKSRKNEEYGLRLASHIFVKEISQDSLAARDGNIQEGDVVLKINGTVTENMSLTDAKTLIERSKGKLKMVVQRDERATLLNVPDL
Sequence of MAGI2_3, Q86UL8 (Q86UL8 600-682): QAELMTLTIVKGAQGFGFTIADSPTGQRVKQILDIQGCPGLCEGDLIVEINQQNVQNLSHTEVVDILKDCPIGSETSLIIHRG
Sequence of NHERF4_2, Q86UT5 (Q86UT5 220-308): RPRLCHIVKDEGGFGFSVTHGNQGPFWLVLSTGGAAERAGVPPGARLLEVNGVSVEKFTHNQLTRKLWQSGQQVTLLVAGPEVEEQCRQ
Sequence of MAGI1_2, Q96QZ7 (Q96QZ7 456-580): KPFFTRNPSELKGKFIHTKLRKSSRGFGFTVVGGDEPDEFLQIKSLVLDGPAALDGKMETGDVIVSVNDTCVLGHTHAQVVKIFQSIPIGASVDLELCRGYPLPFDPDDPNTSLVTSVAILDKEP
Sequence of DLG4_2, P78352 (P78352 155-259): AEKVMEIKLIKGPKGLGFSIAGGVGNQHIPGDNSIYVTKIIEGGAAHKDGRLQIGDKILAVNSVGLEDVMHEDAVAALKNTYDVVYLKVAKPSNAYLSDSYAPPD
Sequence of MAST1, Q9Y2H9 (Q9Y2H9 962-1065): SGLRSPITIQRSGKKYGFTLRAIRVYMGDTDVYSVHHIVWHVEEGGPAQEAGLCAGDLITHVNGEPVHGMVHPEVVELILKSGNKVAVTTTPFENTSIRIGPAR
Sequence of LNX1_1, Q8TBB1 (Q8TBB1 261-371): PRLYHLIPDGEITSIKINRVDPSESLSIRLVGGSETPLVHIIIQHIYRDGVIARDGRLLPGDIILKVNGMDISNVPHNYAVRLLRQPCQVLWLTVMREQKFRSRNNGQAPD
Sequence of GORASP1, Q9BQQ3 (Q9BQQ3 1-208): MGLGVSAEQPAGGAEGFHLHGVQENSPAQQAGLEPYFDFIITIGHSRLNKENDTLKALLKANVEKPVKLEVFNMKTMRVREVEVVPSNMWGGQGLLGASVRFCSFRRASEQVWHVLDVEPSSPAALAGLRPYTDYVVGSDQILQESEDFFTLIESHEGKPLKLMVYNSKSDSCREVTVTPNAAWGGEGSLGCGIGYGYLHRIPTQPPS
Sequence of FRMPD3, Q5JV73 (Q5JV73 12-100): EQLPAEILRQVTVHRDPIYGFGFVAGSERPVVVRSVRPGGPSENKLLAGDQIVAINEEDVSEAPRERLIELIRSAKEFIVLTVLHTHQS
Sequence of PDZRN4_1, Q6ZMN7 (Q6ZMN7 213-318): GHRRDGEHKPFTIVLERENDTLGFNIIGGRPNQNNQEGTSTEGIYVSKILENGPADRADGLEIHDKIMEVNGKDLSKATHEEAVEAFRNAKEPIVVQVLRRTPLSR

Binder: EKLSSIESDV [GRIN2B, Q13224]
- pKd (PTPN3, P26045; [1]): 4.35
- pKd (PDZRN4_1, Q6ZMN7; [1]): below the threshold
- pKd (LNX2_2, Q8N448; [1]): below the threshold
- pKd (DLG4_2, P78352; [1]): 4.86
- pKd (Inadl_8, Q8NI35; [1]): below the threshold
- pKd (SNTG1, Q9NSN8; [1]): 4.8
- pKd (GORASP1, Q9BQQ3; [1]): below the threshold
- pKd (FRMPD3, Q5JV73; [1]): below the threshold
- pKd (NHERF3_4, Q5T2W1; [1]): below the threshold
- pKd (MPP2, Q14168; [1]): below the threshold
- pKd (GORASP2, Q9H8Y8; [1]): below the threshold
- pKd (RHPN1, Q8TCX5; [1]): 4.73
- pKd (MAST1, Q9Y2H9; [1]): 4.04
- pKd (DFNB31_3, Q9P202; [1]): below the threshold
- pKd (MAGI2_3, Q86UL8; [1]): below the threshold
- pKd (DLG3_2, Q92796; [1]): 4.96
- pKd (TJP1_2, Q07157; [1]): below the threshold
- pKd (SHANK1, Q9Y566; [1]): below the threshold
- pKd (LNX1_1, Q8TBB1; [1]): 4.13
- pKd (DLG4_1, P78352; [1]): 4.37
- pKd (LIN7C, Q9NUP9; [1]): below the threshold
- pKd (NHERF4_2, Q86UT5; [1]): below the threshold
- pKd (SYNJ2BP, P57105; [1]): 4.4
- pKd (SCRIB_1, Q14160; [1]): 3.71
- pKd (NHERF3_1, Q5T2W1; [1]): below the threshold
- pKd (MAGI1_2, Q96QZ7; [1]): below the threshold
- pKd (NHERF2_2, Q15599; [1]): below the threshold

Binder: SVVSERISSV [HTR2C, P28335]
- pKd (PTPN3, P26045; [2]): 4.8
- pKd (PDZRN4_1, Q6ZMN7; [2]): below the threshold
- pKd (LNX2_2, Q8N448; [2]): 3.96
- pKd (DLG4_2, P78352; [2]): 4.64
- pKd (Inadl_8, Q8NI35; [2]): 5.14
- pKd (SNTG1, Q9NSN8; [2]): 4.06
- pKd (GORASP1, Q9BQQ3; [2]): below the threshold
- pKd (FRMPD3, Q5JV73; [2]): below the threshold
- pKd (NHERF3_4, Q5T2W1; [2]): below the threshold
- pKd (MPP2, Q14168; [2]): below the threshold
- pKd (GORASP2, Q9H8Y8; [2]): 3.89
- pKd (RHPN1, Q8TCX5; [2]): 4.65
- pKd (MAST1, Q9Y2H9; [2]): 4.02
- pKd (DFNB31_3, Q9P202; [2]): 3.76
- pKd (MAGI2_3, Q86UL8; [2]): 4.3
- pKd (DLG3_2, Q92796; [2]): 4.68
- pKd (TJP1_2, Q07157; [2]): below the threshold
- pKd (SHANK1, Q9Y566; [2]): below the threshold
- pKd (LNX1_1, Q8TBB1; [2]): below the threshold
- pKd (DLG4_1, P78352; [2]): 3.94
- pKd (LIN7C, Q9NUP9; [2]): below the threshold
- pKd (NHERF4_2, Q86UT5; [2]): below the threshold
- pKd (SYNJ2BP, P57105; [2]): 4.46
- pKd (SCRIB_1, Q14160; [2]): below the threshold
- pKd (NHERF3_1, Q5T2W1; [2]): below the threshold
- pKd (MAGI1_2, Q96QZ7; [2]): below the threshold
- pKd (NHERF2_2, Q15599; [2]): below the threshold

Binder: SEKHFRETEV [HTLV1-TAX1, P03409]
- pKd (PTPN3, P26045; [3]): 5.26
- pKd (PDZRN4_1, Q6ZMN7; [3]): 4.9
- pKd (LNX2_2, Q8N448; [3]): 4.15
- pKd (DLG4_2, P78352; [3]): 5.51
- pKd (Inadl_8, Q8NI35; [3]): 3.86
- pKd (SNTG1, Q9NSN8; [3]): 5.43
- pKd (GORASP1, Q9BQQ3; [3]): below the threshold
- pKd (FRMPD3, Q5JV73; [3]): below the threshold
- pKd (NHERF3_4, Q5T2W1; [3]): below the threshold
- pKd (MPP2, Q14168; [3]): below the threshold
- pKd (GORASP2, Q9H8Y8; [3]): below the threshold
- pKd (RHPN1, Q8TCX5; [3]): 4.08
- pKd (MAST1, Q9Y2H9; [3]): below the threshold
- pKd (DFNB31_3, Q9P202; [3]): below the threshold
- pKd (MAGI2_3, Q86UL8; [3]): 4.3
- pKd (DLG3_2, Q92796; [3]): 5.56
- pKd (TJP1_2, Q07157; [3]): below the threshold
- pKd (SHANK1, Q9Y566; [3]): below the threshold
- pKd (LNX1_1, Q8TBB1; [3]): 3.89
- pKd (DLG4_1, P78352; [3]): 5.22
- pKd (LIN7C, Q9NUP9; [3]): 4.59
- pKd (NHERF4_2, Q86UT5; [3]): below the threshold
- pKd (SYNJ2BP, P57105; [3]): 6.04
- pKd (SCRIB_1, Q14160; [3]): 5.63
- pKd (NHERF3_1, Q5T2W1; [3]): 4.71
- pKd (MAGI1_2, Q96QZ7; [3]): 4.45
- pKd (NHERF2_2, Q15599; [3]): below the threshold
